Source: paper PMC8557468, “Evolution-Based Protein Engineering for Antifungal Peptide Improvement” (Molecular Biology and Evolution, 2021)
Positions of bridges follow the written chain, without caps; N, C: chain ends. No end group written: not given here.

Key:
mouse erythrocytes = test: Hemolytic assay; assay type: cell-based; details: 50 μM peptide, 37 °C, 15 min, absorbance 570 nm; n = 3
Procedure: Hemolysis of mouse erythrocytes by peptides was assayed according to the standard method ([Gao et al. 2009]). In brief, the cells were incubated with various concentrations of peptides (6.25, 12.5, 25, or 50 μM) at 37 °C for 15 min. Absorbance was measured at 570 nm with the SpectraMax i3x Multi-Mode microplate reader (Molecular Devices). The percentage of hemolysis was determined as (Apep−Ablank)/(Atot−Ablank)×100. Ablank and Apep were evaluated in the absence or presence of peptides and 100% hemolysis (Atot) was obtained in the presence of 1% Triton X-100. Meucin-18 ([Gao et al. 2009]) was used positive control.

[1] = n = 3
Procedure: To assess serum stability, peptides were incubated in fresh mouse serum for 0, 12, and 24 h at 37 °C, respectively. Residual activities were measured by inhibition zone assays against C. albicans B16. For thermal stability assay, E15K was incubated at 50 °C for 1–5 days, 80 °C or 100 °C for 5 min. CD analysis and inhibition zone assay were used to evaluate a potential impact of heating on the structure and function of the peptide.

Sequence: DVKSGHYKGPCYHDKNCNGVCRDEGYKSGHCSRWGGACWCDT (disulfide 11-31, 17-38, 21-40) [E15K]
- hemolysis on mouse erythrocytes (mouse erythrocytes): no detectable hemolysis
- serum stability (residual antifungal activity) ([1]; fresh mouse serum, 37 °C, 0, 12 and 24 h, residual activity by inhibition zone against C. albicans B16, 1.0 nmol): retained its complete antifungal activity
- thermal stability (activity and structure after heating) ([1]; in water at 50 °C for 1–5 days or 80–100 °C for 5 min, CD spectra and inhibition zone assay): its activity and structure were not obviously changed
